{"source": "paper doi:10.1101/2022.11.07.515429", "about": "(bioRxiv, 2022)", "binders": {"B1": {"name": "Flag-tagged SF3B1 K700E (natural protein, human, UniProt O75533 1-1304, looked up)", "chain": "MAKIAKTHEDIEAQIREIQGKKAALDEAQGVGLDSTGYYDQEIYGGSDSRFAGYVTSIAATELEDDDDDYSSSTSLLGQKKPGYHAPVALLNDIPQSTEQYDPFAEHRPPKIADREDEYKKHRRTMIISPERLDPFADGGKTPDPKMNARTYMDVMREQHLTKEEREIRQQLAEKAKAGELKVVNGAAASQPPSKRKRRWDQTADQTPGATPKKLSSWDQAETPGHTPSLRWDETPGRAKGSETPGATPGSKIWDPTPSHTPAGAATPGRGDTPGHATPGHGGATSSARKNRWDETPKTERDTPGHGSGWAETPRTDRGGDSIGETPTPGASKRKSRWDETPASQMGGSTPVLTPGKTPIGTPAMNMATPTPGHIMSMTPEQLQAWRWEREIDERNRPLSDEELDAMFPEGYKVLPPPAGYVPIRTPARKLTATPTPLGGMTGFHMQTEDRTMKSVNDQPSGNLPFLKPDDIQYFDKLLVDVDESTLSPEEQKERKIMKLLLKIKNGTPPMRKAALRQITDKAREFGAGPLFNQILPLLMSPTLEDQERHLLVKVIDRILYKLDDLVRPYVHKILVVIEPLLIDEDYYARVEGREIISNLAKAAGLATMISTMRPDIDNMDEYVRNTTARAFAVVASALGIPSLLPFLKAVCKSKKSWQARHTGIKIVQQIAILMGCAILPHLRSLVEIIEHGLVDEQQEVRTISALAIAALAEAATPYGIESFDSVLKPLWKGIRQHRGKGLAAFLKAIGYLIPLMDAEYANYYTREVMLILIREFQSPDEEMKKIVLKVVKQCCGTDGVEANYIKTEILPPFFKHFWQHRMALDRRNYRQLVDTTVELANKVGAAEIISRIVDDLKDEAEQYRKMVMETIEKIMGNLGAADIDHKLEEQLIDGILYAFQEQTTEDSVMLNGFGTVVNALGKRVKPYLPQICGTVLWRLNNKSAKVRQQAADLISRTAVVMKTCQEEKLMGHLGVVLYEYLGEEYPEVLGSILGALKAIVNVIGMHKMTPPIKDLLPRLTPILKNRHEKVQENCIDLVGRIADRGAEYVSAREWMRICFELLELLKAHKKAIRRATVNTFGYIAKAIGPHDVLATLLNNLKVQERQNRVCTTVAIAIVAETCSPFTVLPALMNEYRVPELNVQNGVLKSLSFLFEYIGEMGKDYIYAVTPLLEDALMDRDLVHRQTASAVVQHMSLGVYGFGCEDSLNHLLNYVWPNVFETSPHVIQAVMGALEGLRVAIGPCRMLQYCLQGLFHPARKVRDVYWKIYNSIYIGSQDALIAHYPRIYNDDKNTYIRYELDYIL"}}, "biological_target": "T1, Strep-PRP5 (human, UniProt Q7L014 1-1031)", "T1 sequence": "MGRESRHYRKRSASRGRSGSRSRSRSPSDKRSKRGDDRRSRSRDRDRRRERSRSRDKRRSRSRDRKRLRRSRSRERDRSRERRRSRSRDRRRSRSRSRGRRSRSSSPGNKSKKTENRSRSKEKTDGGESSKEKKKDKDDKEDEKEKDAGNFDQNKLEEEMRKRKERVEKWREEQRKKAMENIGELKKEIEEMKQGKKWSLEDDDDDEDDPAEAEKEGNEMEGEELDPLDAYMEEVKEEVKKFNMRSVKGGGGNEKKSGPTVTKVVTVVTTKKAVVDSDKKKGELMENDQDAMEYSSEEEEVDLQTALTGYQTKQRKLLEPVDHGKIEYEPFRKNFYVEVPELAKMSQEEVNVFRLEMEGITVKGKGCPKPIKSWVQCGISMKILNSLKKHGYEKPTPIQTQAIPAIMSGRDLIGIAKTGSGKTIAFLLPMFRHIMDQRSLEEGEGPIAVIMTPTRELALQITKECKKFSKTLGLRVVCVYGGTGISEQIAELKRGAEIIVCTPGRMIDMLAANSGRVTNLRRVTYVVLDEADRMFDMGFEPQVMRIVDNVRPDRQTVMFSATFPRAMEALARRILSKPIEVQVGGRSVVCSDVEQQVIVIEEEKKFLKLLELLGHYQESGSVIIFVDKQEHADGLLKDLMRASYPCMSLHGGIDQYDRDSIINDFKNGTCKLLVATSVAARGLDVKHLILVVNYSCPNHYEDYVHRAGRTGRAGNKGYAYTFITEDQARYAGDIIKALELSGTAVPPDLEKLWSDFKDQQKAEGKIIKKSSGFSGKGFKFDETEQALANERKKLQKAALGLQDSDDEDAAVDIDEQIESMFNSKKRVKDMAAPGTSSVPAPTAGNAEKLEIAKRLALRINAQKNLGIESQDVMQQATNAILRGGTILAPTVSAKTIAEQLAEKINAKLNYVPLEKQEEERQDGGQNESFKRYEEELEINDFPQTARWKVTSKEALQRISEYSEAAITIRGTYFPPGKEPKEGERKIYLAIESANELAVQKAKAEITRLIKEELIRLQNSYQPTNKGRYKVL", "assay": "pull-down", "data": [{"binder": "B1", "values": [{"measurement": "relative binding ratio (pulldown over input, normalised to WT)", "value": 64, "unit": "percent"}]}]}
